System: ONECUT2 (OC2) HOX domain
Assay: SPR
Details: OC2 HOX fragment; DNA probe sequence not given

Substance: PEG10 promoter OC2 binding motif probe
- Kd: 1 nM

From patent US20260015316
